Measured values reported in publication PMC7570257 (Biochemistry, 2015).

Experiments:
native gel or EMSA = target: the molecule itself; assay: native gel or EMSA
AUC = target: the molecule itself; assay: AUC

Protein	stoichiometry N (native gel or EMSA)	stoichiometry N (AUC)
EGFP-tagged tPRMT8 (domain or fragment, human, UniProt Q9NR22 61-394, looked up) MSKLLNPEEMTSRDYYFDSYAHFGIHEEMLKDEVRTLTYRNSMYHNKHVFKDKVVLDVGSGTGILSMFAAKAGAKKVFGIECSSISDYSEKIIKANHLDNIITIFKGKVEEVELPVEKVDIIISEWMGYCLFYESMLNTVIFARDKWLKPGGLMFPDRAALYVVAIEDRQYKDFKIHWWENVYGFDMTCIRDVAMKEPLVDIVDPKQVVTNACLIKEVDIYTVKTEELSFTSAFCLQIQRNDYVHALVTYFNIEFTKCHKKMGFSTAPDAPYTHWKQTVFYLEDYLTVRRGEEIYGTISMKPNAKNVRDLDFTVDLDFKGQLCETSVSNDYKMR	4	
chimera tPRMT8C (β15 of tPRMT8 replaced with that of Hmt1) (domain or fragment, human | yeast) MSKLLNPEEMTSRDYYFDSYAHFGIHEEMLKDEVRTLTYRNSMYHNKHVFKDKVVLDVGSGTGILSMFAAKAGAKKVFGIECSSISDYSEKIIKANHLDNIITIFKGKVEEVELPVEKVDIIISEWMGYCLFYESMLNTVIFARDKWLKPGGLMFPDRAALYVVAIEDRQYKDFKIHWWENVYGFDMTCIRDVAMKEPLVDIVDPKQVVTNACLIKEVDIYTVKTEELSFTSAFCLQIQRNDYVHALVTYFNIEFTKCHKKMGFSTAPDAPYTHWKQTVFYLEDYLTVRRGEEIYGTISMKPNAKNVRDLDFTVDLDFKIDGNSRSRKNEGSYLMH		4
